In experiment [1] the target is T1, soluble, extracellular domain of recombinantly expressed RSV F protein (human RSV).
T1 construct: extracellular domain; also called recombinant RSV F protein; recombinant RSV-F
In words: SPR (Biacore), Fab over captured biotinylated RSV-F. In general terms: In SPR one partner is held on a chip, and binding of the other changes the refractive index at the surface.

The target in experiment [2] is RSV F protein on human RSV virus (Long strain) (human RSV, Long strain, UniProt P12568 26-574). In words: cell-based or functional assay.
In experiment [3] the target is T1, soluble, extracellular domain of …. The experiment in a line: SPR (Biacore), Fab over captured biotinylated RSV-F. The source holds these as a separate data set.

Numbering of substitutions follows the chain as printed. Bounds are passed on as bounds.

For orientation: Kd means a measure of binding affinity in units of concentration. A word on the koff: it is the first-order rate constant of dissociation. For orientation: kon means a measure of how fast the partners come together.
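Throughout, for Kd: purified Fabs injected at a single concentration, reference surface subtracted, rate constants from a one-to-one binding model fit, Kd computed as koff divided by kon.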
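Throughout, for koff: purified Fabs injected at a single concentration, reference surface subtracted, rate constants from a one-to-one binding model fit, Kd computed as koff divided by kon.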
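Throughout, for kon: purified Fabs injected at a single concentration, reference surface subtracted, rate constants from a one-to-one binding model fit, Kd computed as koff divided by kon.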

T1 sequence (P12568 26-109, chain 1 of 2): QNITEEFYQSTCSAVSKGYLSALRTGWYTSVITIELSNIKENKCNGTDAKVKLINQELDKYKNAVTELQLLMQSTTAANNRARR
T1 sequence (P12568 137-524, chain 2 of 2): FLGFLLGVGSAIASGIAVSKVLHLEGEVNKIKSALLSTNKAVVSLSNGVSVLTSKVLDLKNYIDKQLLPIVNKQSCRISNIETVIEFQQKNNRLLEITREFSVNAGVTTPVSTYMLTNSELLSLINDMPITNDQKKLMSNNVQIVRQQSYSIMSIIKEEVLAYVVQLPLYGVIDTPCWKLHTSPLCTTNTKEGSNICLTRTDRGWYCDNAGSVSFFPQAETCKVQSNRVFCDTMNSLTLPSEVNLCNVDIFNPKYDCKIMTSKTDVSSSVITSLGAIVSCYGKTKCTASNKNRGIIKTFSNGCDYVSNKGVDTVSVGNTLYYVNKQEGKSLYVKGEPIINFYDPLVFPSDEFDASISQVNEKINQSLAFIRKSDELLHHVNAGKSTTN

B1: Fab 007 (Fab, V domains shown)
VH: not shown
VL: DIVMTQSPDSLAVSLGERATINCRASQSVDLFGKSYMHWYQQKPGQPPKLLIYAASNPESGVPDRFSGSGSGTDFTLTISSLQAEDVAVYYCQQIIDDPWTFGQGTKVEIK
In the case of B1, in experiment [1], the Kd was 0.058 nM, the dissociation rate constant (koff) worked out at 0.00019 s⁻¹ and the on-rate constant (kon) stood at 3.3e+06 M⁻¹ s⁻¹. In experiment [2], the “Viral Neut (fold increase over wild-type B23 Fab)” value was 5 fold.

B2: Fab 032 (Fab, V domains shown)
VH: not shown
VL: B1 VL with Q27D, L31Y, K34R
On to B2, for which, in experiment [1], the Kd was determined as 0.039 nM, the off-rate constant (koff) amounted to 3.6e-05 s⁻¹ and the association rate constant (kon) was 930000 M⁻¹ s⁻¹. The “Viral Neut (fold increase over wild-type B23 Fab)” value in experiment [2] was more than 23 fold.

B3: Fab 028 (Fab, V domains shown)
VH: not shown
VL: B1 VL with Q27D, K34V, D97E
As for B3, in experiment [1], the Kd turned out to be 0.02 nM, the koff stood at 8.6e-05 s⁻¹ and the association rate constant (kon) was found to be 4.2e+06 M⁻¹ s⁻¹. In addition, the “Viral Neut (fold increase over wild-type B23 Fab)” value in experiment [2] worked out at 18 fold.

B4: Fab 024 (Fab, V domains shown)
VH: not shown
VL: B1 VL with Q27D, K34T
On to B4, for which, in experiment [1], the dissociation constant (Kd) worked out at 0.002 nM, the off-rate constant (koff) was 7e-06 s⁻¹ and the kon worked out at 3.14e+06 M⁻¹ s⁻¹. Further, the “Viral Neut (fold increase over wild-type B23 Fab)” value in experiment [2] was more than 23 fold.

B5: Fab 011 (Fab, V domains shown)
VH: not shown
VL: B1 VL with Q27D, K34Q
For the molecule B5, in experiment [1], the Kd stood at 0.007 nM, the koff is 2.7e-05 s⁻¹ and the kon was found to be 4e+06 M⁻¹ s⁻¹. Also, the “Viral Neut (fold increase over wild-type B23 Fab)” value in experiment [2] is more than 23 fold.

B6: Fab 009 (Fab, V domains shown)
VH: not shown
VL: B1 VL with Q27D, K34R
On to B6, for which, in experiment [1], the Kd came to 0.028 nM, the off-rate constant (koff) came to 7.9e-05 s⁻¹ and the on-rate constant (kon) was found to be 2.8e+06 M⁻¹ s⁻¹. Besides, the “fold decrease in binding dissociation constant (Kd) relative to A7” value in experiment [3] is approximately 4 fold. The “Viral Neut (fold increase over wild-type B23 Fab)” value in experiment [2] stood at 19 fold.

B7: Fab 018 (Fab, V domains shown)
VH: not shown
VL: B1 VL with Q27D, K34Q, D97E
As to B7, in experiment [1], the Kd was 0.055 nM, the koff was 8.8e-05 s⁻¹ and the on-rate constant (kon) worked out at 1.6e+06 M⁻¹ s⁻¹.

B8: Fab 012 (Fab, V domains shown)
VH: not shown
VL: B1 VL
Take B8: in experiment [1], the Kd is 0.005 nM, the koff was determined as 1.5e-05 s⁻¹ and the association rate constant (kon) was 3e+06 M⁻¹ s⁻¹. Also, the “Viral Neut (fold increase over wild-type B23 Fab)” value in experiment [2] was determined as 11 fold.

B9: Fab 025 (Fab, V domains shown)
VH: not shown
VL: B1 VL
In the case of B9, in experiment [1], the equilibrium dissociation constant (Kd) worked out at 0.018 nM, the koff came to 4.6e-05 s⁻¹ and the kon came out at 2.52e+06 M⁻¹ s⁻¹. The “Viral Neut (fold increase over wild-type B23 Fab)” value in experiment [2] is 20 fold.

B10: Fab 022 (Fab, V domains shown)
VH: not shown
VL: B1 VL with K34T
Consider B10, for which, in experiment [1], the Kd is 0.025 nM, the koff came to 5.4e-05 s⁻¹ and the association rate constant (kon) was 2.16e+06 M⁻¹ s⁻¹. In experiment [2], the “Viral Neut (fold increase over wild-type B23 Fab)” value was 22 fold.

B11: Fab 013 (Fab, V domains shown)
VH: not shown
VL: B1 VL with Q27D, K34Q
Turning to B11, in experiment [1], the Kd amounted to 0.058 nM, the koff was determined as 0.00021 s⁻¹ and the on-rate constant (kon) was found to be 3.6e+06 M⁻¹ s⁻¹. The “Viral Neut (fold increase over wild-type B23 Fab)” value in experiment [2] was 13 fold.

B12: Fab 030 (Fab, V domains shown)
VH: not shown
VL: B1 VL with L31Y, F32L
With B12, in experiment [1], the Kd was 0.073 nM, the koff is 7.5e-05 s⁻¹ and the kon is 1.03e+06 M⁻¹ s⁻¹. Moreover, the “Viral Neut (fold increase over wild-type B23 Fab)” value in experiment [2] was found to be 18 fold.

B13: Fab 029 (Fab, V domains shown)
VH: not shown
VL: B1 VL with Q27D, L31Y, K34V
As for B13, in experiment [1], the Kd came to 0.009 nM, the dissociation rate constant (koff) was determined as 4e-05 s⁻¹ and the kon worked out at 4.58e+06 M⁻¹ s⁻¹. The “Viral Neut (fold increase over wild-type B23 Fab)” value in experiment [2] was more than 23 fold.

B14: Fab 014 (Fab, V domains shown)
VH: not shown
VL: B1 VL with Q27D, K34V
In the case of B14, in experiment [1], the Kd came out at 0.184 nM, the off-rate (koff) came to 7e-05 s⁻¹ and the kon turned out to be 380000 M⁻¹ s⁻¹. The “Viral Neut (fold increase over wild-type B23 Fab)” value in experiment [2] was less than 1 fold.

B15: Fab 015 (Fab, V domains shown)
VH: not shown
VL: B1 VL with L31F, K34T
Consider B15, for which, in experiment [1], the Kd was 0.016 nM, the off-rate (koff) stood at 7.8e-05 s⁻¹ and the kon was 5e+06 M⁻¹ s⁻¹. For the same molecule, the “Viral Neut (fold increase over wild-type B23 Fab)” value in experiment [2] was found to be 8 fold.

B16: Fab 026 (Fab, V domains shown)
VH: not shown
VL: B1 VL with Q27D, L31F
Turning to B16, in experiment [1], the equilibrium dissociation constant (Kd) turned out to be 0.028 nM, the off-rate constant (koff) turned out to be 6.6e-05 s⁻¹ and the association rate constant (kon) was determined as 2.39e+06 M⁻¹ s⁻¹. Also, the “Viral Neut (fold increase over wild-type B23 Fab)” value in experiment [2] worked out at 20 fold.

B17: Fab 019 (Fab, V domains shown)
VH: not shown
VL: B1 VL with Q27D, K34Q
As to B17, in experiment [1], the Kd was 0.0135 nM, the koff came out at 4.5e-05 s⁻¹ and the association rate constant (kon) worked out at 3.34e+06 M⁻¹ s⁻¹. Besides, in experiment [2], the “Viral Neut (fold increase over wild-type B23 Fab)” value is more than 23 fold.

B18: Fab A10 (Fab, V domains shown)
VH: not shown
VL: B1 VL with F32L, K34G, D97E
Consider B18, for which, in experiment [1], the Kd is 0.175 nM, the dissociation rate constant (koff) worked out at 0.000147 s⁻¹ and the kon is 850000 M⁻¹ s⁻¹.

B19: Fab 010 (Fab, V domains shown)
VH: not shown
VL: B1 VL with Q27D, K34R
Regarding B19, in experiment [1], the equilibrium dissociation constant (Kd) worked out at 0.047 nM, the koff was 0.00018 s⁻¹ and the association rate constant (kon) was found to be 3.8e+06 M⁻¹ s⁻¹. Also, the “Viral Neut (fold increase over wild-type B23 Fab)” value in experiment [2] came out at 18 fold.

B20: Fab 017 (Fab, V domains shown)
VH: not shown
VL: B1 VL with Q27D, L31Y, K34Q
Take B20: in experiment [1], the Kd came to 0.054 nM, the koff is 8.1e-05 s⁻¹ and the kon was determined as 1.5e+06 M⁻¹ s⁻¹. The “Viral Neut (fold increase over wild-type B23 Fab)” value in experiment [2] was more than 23 fold.

B21: Fab 016 (Fab, V domains shown)
VH: not shown
VL: B1 VL with L31Y, K34V
Take B21: in experiment [1], the Kd was determined as 0.09 nM, the koff turned out to be 9e-05 s⁻¹ and the on-rate (kon) came out at 1e+06 M⁻¹ s⁻¹. For the same molecule, in experiment [2], the “Viral Neut (fold increase over wild-type B23 Fab)” value is 10 fold.

B22: Fab 008 (Fab, V domains shown)
VH: not shown
VL: B1 VL with Q27D
Consider B22, for which, in experiment [1], the dissociation constant (Kd) amounted to 0.133 nM, the off-rate constant (koff) was 0.00028 s⁻¹ and the on-rate (kon) worked out at 2.1e+06 M⁻¹ s⁻¹. For the same molecule, the “Viral Neut (fold increase over wild-type B23 Fab)” value in experiment [2] is 15 fold.

For the origin of these results see patent publication US20060159695A1 (published 2006).
